According to paper doi:10.1101/2021.05.21.445086:

Biological target: mS105 (Chlamydomonas reinhardtii (endogenous in strain CC-4351))
Assay: cryo-EM structure

Substance mS105 (natural protein) has a stoichiometry N of 3.
